The results in this text go back to paper PMC3779078 (Molecular reproduction and development, 2009).

As a reminder, the stoichiometry N is a count of units in the complex or per binding partner.

What all share (assay): PAGE under mildly denaturing conditions with Western blot
Series [1] deals with Izumo 1 N-terminal domain (N), recombinant (mouse).
Series [2] has as its target Izumo domain of Izumo 3, recombinant (mouse).
Series [3] deals with the molecule itself.

Regarding “Izumo 1 N-terminal domain (N), recombinant (domain or fragment)”, the stoichiometry N in series [1] turned out to be 2.

For the molecule “Izumo domain of Izumo 3, recombinant (domain or fragment)”, the stoichiometry N in series [2] is 2.

B1: Izumo 1 entire extracellular domain (N-Ig), recombinant (domain or fragment, mouse, UniProt Q9D9J7 22-319, looked up)
chain: CIKCDQFVTDALKTFENTYLNDHLPHDIHKNVMRMVNHEVSSFGVVTSAEDSYLGAVDENTLEQATWSFLKDLKRITDSDLKGELFIKELLWMLRHQKDIFNNLARQFQKEVLCPNKCGVMSQTLIWCLKCEKQLHICRKSLDCGERHIEVHRSEDLVLDCLLSWHRASKGLTDYSFYRVWENSSETLIAKGKEPYLTKSMVGPEDAGNYRCVLDTINQGHATVIRYDVTVLPPKHSEENQPPNIITQEEHETPVHVTPQTPPGQEPESELYPELHPELYPELIPTVAQNPEKKMKTR
For B1, the “stoichiometry N” value in series [3] is 2.
